± gives the standard deviation.
Test: protein stability index of a GFP-peptide fusion (GPS, HEK-293T) (PSI 1-6); higher = more stable
Settings: c terminus: a fixed tail appended
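Note: 24-mer peptide tiles fused after GFP, lentivirally expressed, FACS-sorted into six equal bins by GFP/DsRed ratio, decoded by Illumina sequencing, PSI is the read-weighted mean bin number.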

Sequence | protein stability index (treatment: DMSO) | protein stability index (treatment: MLN4924 1 uM, 8 h)
IQVSLYCQEWYARRHCPLPQATFW [SOAT2] | 2.87 ± 0.38 | 3.07 ± 0.83
QEAAQLDMLLEKLPQVAEEISGPL [FLOT1] | 4.81 ± 0.29 | 4.76 ± 0.18
KAVSEMRQKIWNNMPKDHPVSCCL [DYNC2LI1] | 2.41 ± 0.21 | 2.46 ± 0.29
QVPRSPVIKISYSTPQGKGEVVKI [PWWP2B] | 2.73 ± 0.26 | 2.58 ± 0.26
IRIIDRALKEDFGFKHRLWVYSGR [PRIM1] | 2.18 ± 0.51 | 2.27 ± 0.51
QGAPASSFVYVNPEDGRIFAQRTF [PCDHGC5] | 2.57 ± 0.27 | 2.78 ± 0.35
STSQGCAQPQGAPCCSSSPEEPLN [FEM1A] | 5.37 ± 0.23 | 5.32 ± 0.15
DPEVFKEMMRFIYTGRAPNLDKMA [SPOPL] | 2.25 ± 0.32 | 2.41 ± 0.26
GEPRKLLTQDWVQENYLEYRQVPG [MAGEA10] | 3.62 ± 0.17 | 4.15 ± 0.3
LKKKQKRQAELLEKRLQEIEELER [SRPK2] | 4.2 ± 0.29 | 4.24 ± 0.49
SRVTDAAFNFLLVWYYCTLTIRES [TMEM120A] | 3 ± 0.1 | 2.62 ± 0.45
KLLKQMRILWKKIQENQRNLYEEG [TRIM43] | 1.88 ± 0.61 | 1.85 ± 0.081
APLLRWVLTLSFLVATVAVGLYAM [HMOX1] | 2.84 ± 0.56 | 2.74 ± 0.69
TPVDMWSVGCIFAEMFRRKPLFCG [CDK4] | 2.98 ± 0.97 | 2.64 ± 0.61
VGLAVVNGQLMAVGGFDGTTYLKT [KLHL20] | 2.69 ± 0.54 | 2.23 ± 0.19
VLSSTTLLPRQPLPLGIKVYEDET [PALM] | 4.23 ± 0.21 | 4.18 ± 0.16
LNFWNKQDTLELESPSLTSTPVCS [MYBL2] | 3.58 ± 0.12 | 3.63 ± 0.2
AAASPYIRTKLNYNPPKDDGSTYK [GAN] | 3.98 ± 0.11 | 3.79 ± 0.2
DADILGLKKSNSAPSKKAAKDPGK [FBF1] | 5.18 ± 0.18 | 5.22 ± 0.42
FRTKFETEQALRLSVEADINGLRR [KRT17] | 3.37 ± 0.14 | 3.38 ± 0.32

Sequence | protein stability index (treatment: DMSO) | protein stability index (treatment: MLN4924 1 uM, 8 h)
VCYQYPGYRGYQYILECDHHGGDY [CRYBA1] | 2.35 ± 0.4 | 2.08 ± 0.18
NLETNEWRYVSSLPQPLAAHAGAV [KLHL14] | 2.64 ± 0.36 | 2.87 ± 0.37
LRALREKLFAHSSDLLSEFKKHDA [PPEF2] | 2.1 ± 0.33 | 2.29 ± 0.42
PPSSPRTLRLEKLGHPALSQEEGK [PPFIA4] | 5 ± 0.15 | 5.19 ± 0.31
KMAHVIAACLYLVCRTEGTPHMLL [BRF1] | 3.26 ± 0.64 | 2.84 ± 0.42
SKDWVFLNYTYKRFEGLTQRGSIP [STK38L] | 2.54 ± 0.78 | 2.48 ± 1
WNVLMWTSLFLGNGVLLCFYSQEW [SOAT1] | 2.99 ± 0.93 | 2.7 ± 0.38
LVSVYPDKYCPLLIKEGGMPLLRD [ZER1] | 2.38 ± 0.23 | 2.42 ± 0.29
RAPKVLGTTLVVGLLAGVGYFAFM [GDAP1] | 3.66 ± 0.29 | 3.17 ± 0.27
TCVAVGSPMPYVKWMLGAEDLTPE [PTPRD] | 2.97 ± 0.33 | 3.14 ± 0.38
FGELMRKLWNPRNFKAHVSPHEML [USP39] | 2.51 ± 0.43 | 2.25 ± 0.084
AGEEDPSGMVTIITGLPLDNPSVL [SMG5] | 3.7 ± 0.18 | 3.75 ± 0.19
LLGGDLRYHLQQNVHFKEETVKLF [STK32A] | 2.36 ± 0.41 | 2.6 ± 0.27
SAAIHISETLEQKPHFESSTVKTE [EPB41L3] | 4.92 ± 0.66 | 5.06 ± 0.52
EVVVAESELQKELKKVKTAHSNDG [DPCD] | 5.18 ± 0.25 | 5.25 ± 0.32
MTGLALKHMFERSFTQGEGARPLS [MATN2] | 2.69 ± 0.28 | 2.93 ± 0.42
VTQREHSSEHVTESVADLLALEEP [SLC6A17] | 5.3 ± 0.47 | 5.12 ± 0.3
GKHITVFKTYISPWERAMGVDPQQ [MYOZ1] | 2.33 ± 0.27 | 2.18 ± 0.46
TTSTLASSLPGHAAKTLPGGAGKG [EHMT1] | 4.77 ± 0.15 | 5.28 ± 0.16
AHIRAERDILVEADGAWVVKMFYS [STK38L] | 2.24 ± 0.3 | 2.27 ± 0.2
